Laboratory results: publication PMC4048032

Target: VopL C-terminal Domain (VCD), residues 247–484 (Vibrio parahaemolyticus) (UniProt Q87GE5)
Test: crystal structure

For “VopL C-terminal Domain (VCD), residues 247–484 (from UniProt Q87GE5 247-484) (domain or fragment)”, which stoichiometry N is on record?
The stoichiometry N was 2.
